Laboratory results as given in patent publication US20250263469A1 (HOSPITAL FOR SICK CHILDREN, published 2025).

Tests used:
[1] = target: Spike of authentic SARS-CoV-2/SB2-P4-PB virus (SARS-CoV-2, UniProt P0DTC2 14-1273); assay: cell-based or functional assay
[2] = target: SARS-CoV-2 Spike N439K on pseudotyped virus (SARS-CoV-2, UniProt P0DTC2 14-1273); assay: cell-based or functional assay
[3] = target: SARS-CoV-2 Spike D614G on pseudotyped virus (SARS-CoV-2, UniProt P0DTC2 14-1273); assay: cell-based or functional assay
[4] = target: SARS-CoV-2 Spike L452R on pseudotyped virus (SARS-CoV-2, UniProt P0DTC2 14-1273); assay: cell-based or functional assay
[5] = target: SARS-CoV-2 Spike A475V on pseudotyped virus (SARS-CoV-2, UniProt P0DTC2 14-1273); assay: cell-based or functional assay
[6] = target: SARS-CoV-2 Spike V483A on pseudotyped virus (SARS-CoV-2, UniProt P0DTC2 14-1273); assay: cell-based or functional assay
[7] = target: T1, SARS-CoV-2 receptor binding domain (RBD), wild type (BEI NR52309) (SARS-CoV-2, UniProt P0DTC2 319-541); assay: BLI competition on His-tagged RBD, signal of the 2nd Ab after 1st Ab 236
[8] = target: T1, SARS-CoV-2 receptor binding domain …; assay: BLI competition on His-tagged RBD, signal of the 2nd Ab after 1st Ab 298
[9] = target: T1, SARS-CoV-2 receptor binding domain …; assay: BLI competition on His-tagged RBD, signal of the 2nd Ab after 1st Ab 324

B1: mAb 46 (antibody, V domains shown)
VH: EVQLLESGGGLVQPGRSLRLSCAASGFTFSSYAMSWVRQAPGKGLEWVSTIYSGGSTYYADSVKGRFTISRDNSKNTLYLQMNSLRAEDTAVYYCARGDSRDAFDIWGQGTMVTVSS
VL: DIQMTQSPSSLSASVGDRVTITCRASQSISSWLAWYQQKPGKAPKLLIYDASNLETGVPSRFSGSGSGTDFTLTISSLQPEDFATYYCQQSYSTPFTFGPGTKVDIKR
IC50 SARS-CoV2/SB2-P4-PB (authentic virus), IgG [1]: 19 µg/mL | Potency change vs WT PsV [2]: 4.1 fold | Potency change vs WT PsV [3]: 1.9 fold | IC50 (PsV neutralisation) [4]: > 100 µg/mL | Potency change vs WT PsV [5]: 1.9 fold | Potency change vs WT PsV [6]: 2 fold | RBD binding [7]: 1.7 | RBD binding [8]: 1.7 | RBD binding [9]: 1.7

B2: mAb 324 (antibody, V domains shown)
VH: QVQLVQSGAEVKKPGASVKVSCKASGGTFNNYGISWVRQAPGQGLEWMGWMNPNSGNTGYAQKFQGRVTMTRDTSTSTVYMELSSLRSEDTAVYYCARVGDYGDYIVSPFDLWGRGTLVTVSS
VL: DIQMTQSPSSLSASVGDRVTITCRASQSITTYLNWYQQKPGKAPKLLIYDASNLETGVPSRFSGSGSGTDFTLTISSLQPEDFATYYCQQSYSTPPTFGQGTKVEIKR
IC50 SARS-CoV2/SB2-P4-PB (authentic virus), IgG [1]: 21 µg/mL | Potency change vs WT PsV [2]: -1 fold | Potency change vs WT PsV [3]: 2.6 fold | Potency change vs WT PsV [4]: 0.8 fold | Potency change vs WT PsV [5]: -0.6 fold | Potency change vs WT PsV [6]: -0.4 fold | RBD binding [7]: 0.3 | RBD binding [9]: 0.4

B3: mAb 82 (antibody, V domains shown)
VH: QVQLVQSGAEVKKPGASVKVSCKASGGSFSTSAFYWVRQAPGQGLEWMGWINPYTGGTNYAQKFQGRVTMTRDTSTSTVYMELSSLRSEDTAVYYCARSRALYGSGSYFDYWGQGTLVTVSS
VL: DIQMTQSPSSLSASVGDRVTITCRASQVISNYLAWYQQKPGKAPKLLIYDASNLETGVPSRFSGSGSGTDFTLTISSLQPEDFATYYCQQSFSPPPTFGQGTRLEIKR
Potency change vs WT PsV [2]: 1.1 fold | Potency change vs WT PsV [4]: -8.1 fold | Potency change vs WT PsV [5]: -5.7 fold | Potency change vs WT PsV [6]: 0.2 fold | RBD binding [8]: 0.5 | RBD binding [9]: 0.8

B4: mAb 236 (antibody, V domains shown)
VH: QVQLVQSGAEVKKPGASVKVSCKASGGTFTSYGINWVRQAPGQGLEWMGWMNPNSGNTGYAQKFQGRVTMTRDTSTSTVYMELSSLRSEDTAVYYCASRGIQLLPRGMDVWGQGTTVTVSS
VL: not shown
IC50 SARS-CoV2/SB2-P4-PB (authentic virus), IgG [1]: 5.5 µg/mL | Potency change vs WT PsV [2]: 2.1 fold | Potency change vs WT PsV [3]: 0.7 fold | Potency change vs WT PsV [4]: -0.6 fold | Potency change vs WT PsV [5]: 1.4 fold | Potency change vs WT PsV [6]: 1.9 fold | RBD binding [7]: 0.3 | RBD binding [9]: 0.4

B5: mAb 52 (antibody, V domains shown)
VH: QVQLVQSGAEVKKPGSSVKVSCKASGYTFTSYGISWVRQAPGQGLEWMGGIIPMFGTTNYAQKFQGRVTITADKSTSTAYMELSSLRSEDTAVYYCARDRGDTIDYWGQGTLVTVSS
VL: DIQMTQSPSSLSASVGDRVTITCRASQGISNNLNWYQQKPGKAPKLLIYAASSLESGVPSRFSGSGSGTDFTLTISSLQPEDFATYYCQQGNGFPLTFGPGTKVDIKR
IC50 SARS-CoV2/SB2-P4-PB (authentic virus), IgG [1]: 6.2 µg/mL | Potency change vs WT PsV [2]: 1.8 fold | Potency change vs WT PsV [3]: 0.4 fold | IC50 (PsV neutralisation) [4]: > 100 µg/mL | Potency change vs WT PsV [5]: 1.1 fold | RBD binding [7]: 1.5 | RBD binding [8]: 1.4 | RBD binding [9]: 1.5
